Reference: US20190071490A1, “Preventing Post-Ictal Headaches” (Beth Israel Deaconess Medical Center, Inc., priority 2017, published 2019)

What was measured:
[1] = tested on: central trigeminovascular neurons (medullary dorsal horn); experiment: Seizure (picrotoxin)-induced activation of trigeminovascular neurons, single-unit recording; format: in vivo; conditions: rat
Excerpt: Cortical electrodes were used to trace the magnitude, extent and progression of epileptiform seizures.
Single-unit recordings were obtained from neurons in the trigeminal ganglion and dorsal horn as described in previous studies (Burstein et al. (1998) J. Neurophysiol. 79: 964-82; Strassman and Levy (2006) J. Neurophysiol. 95: 1298-306; Strassman et al. (1996) Nature 384: 560-4; Zhang et al. (2010) J. Neurosci. 30: 8807-14; and Zhang et al. (2011) Ann. Neurol. 69: 855-65). Experiments were done in adult Sprague-Dawley rats (250 g to 350 g). Animals were anesthetized with urethane (1.2-1.5 g/kg), artificially ventilated with oxygen, and paralyzed. Body temperature was controlled, and end-tidal CO2 and oxygen saturation was monitored. For ganglion recordings, four separate craniotomies were made: over the contralateral cortex, to advance the microelectrode; over the ipsilateral parietal cortex, and the ipsilateral occipital cortex, for application of the picrotoxin and recording of electrocorticogram activity; and over the ipsilateral transverse sinus, for electrical and mechanical stimulation of dural afferents, and lidocaine application. For dorsal horn recording, the same craniotomies were made over the ipsilateral cortex and the ipsilateral transverse sinus, but no contralateral craniotomy was made. Instead, a laminectomy was made to expose the upper cervical spinal cord (C1-2) for microelectrode recording. In both the trigeminal ganglion and the dorsal horn recording experiments, the search stimulus for finding dura-sensitive neurons is single-shock electrical stimulation applied to the dura covering the transverse sinus.
Seizure was induced by application of picrotoxin to the surface of the cerebral cortex (10 μl, applied on a small piece of gelfoam, at a concentration of either 5 mM or 100 mM, for focal or generalized seizure, respectively). For verification of seizure induction, cortical activity was recorded with a glass micropipette (0.9% saline, ˜1 megohm, 7 μm tip) placed just below the surface of the cerebral cortex, at the parietal and the occipital site. […]

[2] = tested on: naïve central trigeminovascular neurons (HT, WDR) in the spinal trigeminal nucleus; experiment: Single-unit recording of spontaneous and evoked activity of naïve trigeminovascular neurons; format: in vivo, rat; conditions: 30 mg/kg i.v.; for effect on spontaneous activity of naïve HT and WDR neurons: 1-4 hours post-treatment vs baseline
Excerpt: Experiments were approved by the Beth Israel Deaconess Medical Center and Harvard Medical School standing committees on animal care, and in accordance with the U.S. National Institutes of Health Guide for the Care and Use of Laboratory Animals. Male and female Sprague-Dawley rats (250-350 g) were anesthetized with urethane (0.9-1.2 g/kg i.p.). They were fitted with an intra-tracheal tube to allow artificial ventilation (0.1 L/min of O2), and an intra-femoral-vein cannula for later infusion of drugs. Rats were placed in a stereotaxic apparatus, and core temperature was kept at 37° C. using a heating blanket. End-tidal CO2 was continuously monitored and kept within physiological range (3.5-4.5 pCO2). Once stabilized, rats were paralyzed with rocuronium bromide (10 mg/ml, 1 ml/hr continuous intravenous infusion) and ventilated. For stimulation of the cranial dura later in the experiment, a 5×5-mm opening was carefully carved in the parietal and occipital bones in front and behind the lambda suture, directly above the left transverse sinus. The exposed dura was kept moist using a modified synthetic interstitial fluid (135 mM NaCl, 5 mM KCl, 1 mM MgCl2, 5 mM CaCl2), 10 mM glucose and 10 mM Hepes, pH 7.2). For single-unit recording in the spinal trigeminal nucleus, a segment of the spinal cord between the obex and C2 was uncovered from overlying tissues, stripped of the dura mater, and kept moist with mineral oil.
To record neuronal activity, a tungsten microelectrode (impedance 3-4 MΩ) was lowered repeatedly into the spinal trigeminal nucleus (STN) in search of central trigeminovascular neurons receiving convergent input from the dura and facial skin. Trigeminovascular neurons were first identified based on their responses to electrical stimulation of the dura. […] Dural receptive fields were mapped by indenting the dura (with the 4.19 g VFH monofilament) at points separated by 1 mm mediolaterally and rostrocaudally. Points at which dural indentation produced a response in ≥50% of the trials were considered inside the neurons receptive field. Cutaneous receptive fields were mapped by applying innocuous and noxious mechanical stimulation to all facial skin areas and the cornea. An area was considered outside the receptive field if no stimulus produced a response in ≥50% of the trials. Responses to mechanical stimulation of the skin were determined by applying brief (10 s) innocuous and noxious stimuli to the most sensitive portion of the cutaneous receptive field. Innocuous stimuli consisted of slowly passing a soft bristled brush across the cutaneous receptive field (one 5-s brush stroke from caudal to rostral and one 5-s brush stroke from rostral to caudal) and pressure applied with a loose arterial clip. Noxious stimuli consisted of pinch with a strong arterial clip (Palecek et al., 1992, J. Neurophysiol. 67:1562-1573; Dado et al., 1994, J. Neurophysiol. 71:981-1002; Burstein et al., 1998, J. Neurophysiol. 79:964-982). More intense or prolonged stimuli were not used to avoid inducing prolonged changes in spontaneous neuronal discharge or response properties. Responses to mechanical stimulation of the cornea consisted of gentle and slow brushing strokes with a thin paintbrush (about 10 hair-follicles). Two classes of neurons were thus identified: wide-dynamic-range (WDR) neurons (incrementally responsive to brush, pressure and pinch), and high-threshold (HT) neurons (unresponsive to brush). Real-time waveform discriminator was used to create and store a template for the action potential evoked in the neuron under study by electrical pulses on the dura; spikes of activity matching the template waveform were acquired and analyzed online and offline using Spike 2 software (CED, Cambridge, UK).
It was diluted in saline to a final dose of 30 mg/kg and administered intravenously (bolus injection, total volume 0.6-0.7 ml). […]

[3] = tested on: first-order trigeminovascular neurons (A-delta and C-type meningeal nociceptors); experiment: Single-unit recording of first-order neurons in the trigeminal ganglion evoked by CSD; format: in vivo, rat; conditions: male rats
Protocol: CSD was induced by pinprick 4 hours after drug/isotype infusion.

B1: G1: humanized monoclonal anti-CGRP antagonist antibody; heavy chain SEQ ID NO:11, light chain SEQ ID NO:12 (antibody)
heavy: EVQLVESGGGLVQPGGSLRLSCAASGFTFSNYWISWVRQAPGKGLEWVAEIRSESDASATHYAEAVKGRFTISRDNAKNSLYLQMNSLRAEDTAVYYCLAYFDYGLAIQNYWGQGTLVTVSSASTKGPSVFPLAPCSRSTSESTAALGCLVKDYFPEPVTVSWNSGALTSGVHTFPAVLQSSGLYSLSSVVTVPSSNFGTQTYTCNVDHKPSNTKVDKTVERKCCVECPPCPAPPVAGPSVFLFPPKPKDTLMISRTPEVTCVVVDVSHEDPEVQFNWYVDGVEVHNAKTKPREEQFNSTFRVVSVLTVVHQDWLNGKEYKCKVSNKGLPSSIEKTISKTKGQPREPQVYTLPPSREEMTKNQVSLTCLVKGFYPSDIAVEWESNGQPENNYKTTPPMLDSDGSFFLYSKLTVDKSRWQQGNVFSCSVMHEALHNHYTQKSLSLSPGK
light: EIVLTQSPATLSLSPGERATLSCKASKRVTTYVSWYQQKPGQAPRLLIYGASNRYLGIPARFSGSGSGTDFTLTISSLEPEDFAVYYCSQSYNYPYTFGQGTKLEIKRTVAAPSVFIFPPSDEQLKSGTASVVCLLNNFYPREAKVQWKVDNALQSGNSQESVTEQDSKDSTYSLSSTLTLSKADYEKHKVYACEVTHQGLSSPVTKSFNRGEC
neurons activated by the seizure (number/total) ([1]; 30 mg/kg i.v. four hours before induction of seizure, medullary dorsal horn, untreated 28/30): 2/13
neurons activated by the seizure (percent) ([1]; 30 mg/kg i.v. four hours before induction of seizure, medullary dorsal horn, untreated 93%): 15%
activation of central trigeminovascular neuron by seizure (FIG. 9) ([1]; 30 mg/kg intravenously four hours before induction of seizure): prevented the activation of a central trigeminovascular neuron but not the occurrence of a seizure
effect on spontaneous activity of naïve HT and WDR neurons ([2]; female rats): did not reduce the spontaneous activity of HT or WDR neurons
decrease of firing of HT neurons in response to dural indentation ([2]; female rats, p=0.017): 61%
effect on sensitivity to mechanical stimulation of the dura (dural indentation), HT and WDR neurons ([2]; male and female rats): reduced the sensitivity to mechanical stimulation of the dura in the HT but not the WDR neurons
effect on responses to innocuous (brush, pressure) or noxious (pinch) mechanical stimulation of the skin or the cornea ([2]; male or female rats, HT or WDR neurons): did not alter the responses of HT or WDR neurons
effect on spontaneous activity of naïve HT and WDR neurons ([2]; male rats): reduced the spontaneous activity of the HT but not the WDR neurons
decrease of firing of HT neurons in response to dural indentation ([2]; male rats, p=0.047): 75%
decrease of spontaneous neuronal firing, HT neurons ([2]; male rats, within 3-4 hrs, p=0.040): 90%
activation of meningeal nociceptors by CSD (FIGS. 23A and 23B) [3]: prevents the activation of most a-delta and some C-type meningeal nociceptors
C-fibers activated by CSD ([3]; 30 mg/kg IV 4 hours before CSD): 23%
a-delta fibers activated by CSD ([3]; 30 mg/kg IV 4 hours before CSD): 14%
neurons tested that were activated by CSD ([3]; 30 mg/kg IV 4 hours before CSD, all first-order neurons): 20%
